Data on 1 substance can be found in PMC7762940.

The target of this assay is TubY C-terminal domain (BcYCΔ; residues 107-182) of pBc10987 from Bacillus cereus (Bacillus cereus (plasmid pBc10987)). As to the kind of experiment: crystal structure; Se-substituted BcYCΔ at 1.4 mM in 10 mM Tris pH 8.0, 0.1 M NaCl, 3 mM DTT; sitting drop, 20 °C, 0.1 M HEPES pH 7.5, 0.2 M MgCl2, 30% PEG400; 2.6 Å; four monomers in the asymmetric unit.

“TubY C-terminal domain (BcYCΔ; residues 107-182) of pBc10987 from Bacillus cereus (domain or fragment)” had a stoichiometry N of 4.
